Test results taken from article PMC9352680, “A comprehensive thermodynamic model for RNA binding by the Saccharomyces cerevisiae Pumilio protein PUF4”.

T1: PUF4 RNA-binding domain (Saccharomyces cerevisiae, UniProt P25339 537-888)
T1 sequence: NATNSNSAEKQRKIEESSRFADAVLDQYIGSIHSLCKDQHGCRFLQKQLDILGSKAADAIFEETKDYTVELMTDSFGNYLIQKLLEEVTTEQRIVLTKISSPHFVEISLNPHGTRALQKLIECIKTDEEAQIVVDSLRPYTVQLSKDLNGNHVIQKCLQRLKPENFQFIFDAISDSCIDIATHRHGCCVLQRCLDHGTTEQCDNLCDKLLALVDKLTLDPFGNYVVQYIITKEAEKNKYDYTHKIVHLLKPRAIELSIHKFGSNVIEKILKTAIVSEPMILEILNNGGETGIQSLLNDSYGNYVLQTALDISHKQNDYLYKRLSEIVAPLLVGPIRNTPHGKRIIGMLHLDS


Biological target: T1, PUF4 RNA-binding domain
Test: Mg; RNA-MaP; 20 mM Na-HEPES pH 7.4, 30 mM KOAc, 0.75 mM MgCl2, 0.1% Tween-20, 5% glycerol, 0.1 mg/mL BSA, 2 mM DTT; 25 C; 0.0125-409.6 nM protein
Details: tags: N-His6-TEV cleaved; C-SNAP kept, Cy3B-labelled; label: tethered on chip by stalled RNA polymerase

Binder | Kd
UCUCUUAUUAUAUAUUAACUCUCUU (ssRNA) [Id_ii_S1_P4E.3_K4.2_C4.2_[C-2A]_H4.2_A4.1_F4.1_T4.2_[G10A]_[T11C]] | 44.1 nM
UCUCUUAUUAUAUAUUACCUCUCUU (ssRNA) [Id_ii_S1_P4E.3_K4.2_C4.2_[C-2A]_H4.2_A4.1_F4.1_T4.2_[G10C]_[T11C]] | 39 nM
UCUCUUAUUAUAUAUUACAUCUCUU (ssRNA) [Id_ii_S1_P4E.3_K4.2_C4.2_[C-2A]_H4.2_A4.1_F4.1_T4.2_[G10C]_[T11A]] | 42.9 nM
UCUCUUCCUAUAUAUUAAAUCUCUU (ssRNA) [Id_ii_S1_P4E.3_K4.2_C4.2_[T-1C]_H4.2_A4.1_F4.1_T4.2_[G10A]_[T11A]] | 30.4 nM
UCUCUUCGUAUAUAUUAUUUCUCUU (ssRNA) [Id_ii_S1_P4E.3_K4.2_C4.2_[T-1G]_H4.2_A4.1_F4.1_T4.2_[G10T]] | 21.9 nM
UCUCUUCAUAUAUAUUAUCUCUCUU (ssRNA) [Id_ii_S1_P4E.3_K4.2_C4.2_[T-1A]_H4.2_A4.1_F4.1_T4.2_[G10T]_[T11C]] | 25 nM
UCUCUUCCUAUAUAUUAUGUCUCUU (ssRNA) [Id_ii_S1_P4E.3_K4.2_C4.2_[T-1C]_H4.2_A4.1_F4.1_T4.2_[G10T]_[T11G]] | 21.1 nM
UCUCUUAAUAUAUAUUAUCUCUCUU (ssRNA) [Id_ii_S1_P4E.3_K4.2_C4.2_[C-2A]_[T-1A]_H4.2_A4.1_F4.1_T4.2_[G10T]_[T11C]] | 79.9 nM
UCUCUUAAUAUAUAUUACGUCUCUU (ssRNA) [Id_ii_S1_P4E.3_K4.2_C4.2_[C-2A]_[T-1A]_H4.2_A4.1_F4.1_T4.2_[G10C]_[T11G]] | 163 nM
UCUCUUCCUAUAUAUUACCUCUCUU (ssRNA) [Id_ii_S1_P4E.3_K4.2_C4.2_[T-1C]_H4.2_A4.1_F4.1_T4.2_[G10C]_[T11C]] | 28 nM
UCUCUUAUUAUAUAUUAGCUCUCUU (ssRNA) [Id_ii_S1_P4E.3_K4.2_C4.2_[C-2A]_H4.2_A4.1_F4.1_T4.2_[T11C]] | 15.7 nM
UCUCUUACUAUAUAUUACCUCUCUU (ssRNA) [Id_ii_S1_P4E.3_K4.2_C4.2_[C-2A]_[T-1C]_H4.2_A4.1_F4.1_T4.2_[G10C]_[T11C]] | 38.3 nM
UCUCUUCCUAUAUAUUACGUCUCUU (ssRNA) [Id_ii_S1_P4E.3_K4.2_C4.2_[T-1C]_H4.2_A4.1_F4.1_T4.2_[G10C]_[T11G]] | 32.8 nM
UCUCUUAUUAUAUAUUAAAUCUCUU (ssRNA) [Id_ii_S1_P4E.3_K4.2_C4.2_[C-2A]_H4.2_A4.1_F4.1_T4.2_[G10A]_[T11A]] | 72.4 nM
UCUCUUACUAUAUAUUACGUCUCUU (ssRNA) [Id_ii_S1_P4E.3_K4.2_C4.2_[C-2A]_[T-1C]_H4.2_A4.1_F4.1_T4.2_[G10C]_[T11G]] | 51.9 nM
UCUCUUACUAUAUAUUAUGUCUCUU (ssRNA) [Id_ii_S1_P4E.3_K4.2_C4.2_[C-2A]_[T-1C]_H4.2_A4.1_F4.1_T4.2_[G10T]_[T11G]] | 22.5 nM
UCUCUUACUAUAUAUUAUCUCUCUU (ssRNA) [Id_ii_S1_P4E.3_K4.2_C4.2_[C-2A]_[T-1C]_H4.2_A4.1_F4.1_T4.2_[G10T]_[T11C]] | 29.3 nM
UCUCUUAUUAUAUAUUACUUCUCUU (ssRNA) [Id_ii_S1_P4E.3_K4.2_C4.2_[C-2A]_H4.2_A4.1_F4.1_T4.2_[G10C]] | 20.1 nM
UCUCUUAAUAUAUAUUAUUUCUCUU (ssRNA) [Id_ii_S1_P4E.3_K4.2_C4.2_[C-2A]_[T-1A]_H4.2_A4.1_F4.1_T4.2_[G10T]] | 54.1 nM

Binder | Kd
UCUCUUUGUGUAGUAUCUCUU (ssRNA) [Ib_S1_P4E.1_K4.1_C4.1_H4.1_[A4G]_A4.1_[T7G]_F4.1_T4.1] | 18.3 nM
UCUCUUCGUAUAUAUUAACUCUCUU (ssRNA) [Id_ii_S1_P4E.3_K4.2_C4.2_[T-1G]_H4.2_A4.1_F4.1_T4.2_[G10A]_[T11C]] | 29.9 nM
UCUCUUACUAUAUAUUACUUCUCUU (ssRNA) [Id_ii_S1_P4E.3_K4.2_C4.2_[C-2A]_[T-1C]_H4.2_A4.1_F4.1_T4.2_[G10C]] | 26.2 nM
UCUCUUCAUAUAUAUUACAUCUCUU (ssRNA) [Id_ii_S1_P4E.3_K4.2_C4.2_[T-1A]_H4.2_A4.1_F4.1_T4.2_[G10C]_[T11A]] | 27.8 nM
UCUCUUAUUAUAUAUUAUGUCUCUU (ssRNA) [Id_ii_S1_P4E.3_K4.2_C4.2_[C-2A]_H4.2_A4.1_F4.1_T4.2_[G10T]_[T11G]] | 18.8 nM
UCUCUUAAUAUAUAUUACAUCUCUU (ssRNA) [Id_ii_S1_P4E.3_K4.2_C4.2_[C-2A]_[T-1A]_H4.2_A4.1_F4.1_T4.2_[G10C]_[T11A]] | 48.9 nM
UCUCUUAAUAUAUAUUAACUCUCUU (ssRNA) [Id_ii_S1_P4E.3_K4.2_C4.2_[C-2A]_[T-1A]_H4.2_A4.1_F4.1_T4.2_[G10A]_[T11C]] | 442 nM
UCUCUUAAUAUAUAUUACUUCUCUU (ssRNA) [Id_ii_S1_P4E.3_K4.2_C4.2_[C-2A]_[T-1A]_H4.2_A4.1_F4.1_T4.2_[G10C]] | 56.4 nM
UCUCUUACUAUAUAUUAACUCUCUU (ssRNA) [Id_ii_S1_P4E.3_K4.2_C4.2_[C-2A]_[T-1C]_H4.2_A4.1_F4.1_T4.2_[G10A]_[T11C]] | 33 nM
UCUCUUCGUAUAUAUUAAAUCUCUU (ssRNA) [Id_ii_S1_P4E.3_K4.2_C4.2_[T-1G]_H4.2_A4.1_F4.1_T4.2_[G10A]_[T11A]] | 51.6 nM
UCUCUUCCUAUAUAUUACUUCUCUU (ssRNA) [Id_ii_S1_P4E.3_K4.2_C4.2_[T-1C]_H4.2_A4.1_F4.1_T4.2_[G10C]] | 20.1 nM
UCUCUUCAUAUAUAUUACGUCUCUU (ssRNA) [Id_ii_S1_P4E.3_K4.2_C4.2_[T-1A]_H4.2_A4.1_F4.1_T4.2_[G10C]_[T11G]] | 34.8 nM
UCUCUUCGUAUAUAUUAGCUCUCUU (ssRNA) [Id_ii_S1_P4E.3_K4.2_C4.2_[T-1G]_H4.2_A4.1_F4.1_T4.2_[T11C]] | 9.29 nM
UCUCUUACUAUAUAUUAUAUCUCUU (ssRNA) [Id_ii_S1_P4E.3_K4.2_C4.2_[C-2A]_[T-1C]_H4.2_A4.1_F4.1_T4.2_[G10T]_[T11A]] | 27.2 nM
UCUCUUAAUAUAUAUUAGUUCUCUU (ssRNA) [Id_ii_S1_P4E.3_K4.2_C4.2_[C-2A]_[T-1A]_H4.2_A4.1_F4.1_T4.2] | 26.7 nM
UCUCUUAUUAUAUAUUAUAUCUCUU (ssRNA) [Id_ii_S1_P4E.3_K4.2_C4.2_[C-2A]_H4.2_A4.1_F4.1_T4.2_[G10T]_[T11A]] | 26.5 nM
UCUCUUAUUAUAUAUUAUUUCUCUU (ssRNA) [Id_ii_S1_P4E.3_K4.2_C4.2_[C-2A]_H4.2_A4.1_F4.1_T4.2_[G10T]] | 9.53 nM
UCUCUUACUAUAUAUUAAAUCUCUU (ssRNA) [Id_ii_S1_P4E.3_K4.2_C4.2_[C-2A]_[T-1C]_H4.2_A4.1_F4.1_T4.2_[G10A]_[T11A]] | 87.3 nM
UCUCUUACUAUAUAUUAUUUCUCUU (ssRNA) [Id_ii_S1_P4E.3_K4.2_C4.2_[C-2A]_[T-1C]_H4.2_A4.1_F4.1_T4.2_[G10T]] | 25.9 nM

Binder | Kd
UCUCUUCCUAUAUAUUAUAUCUCUU (ssRNA) [Id_ii_S1_P4E.3_K4.2_C4.2_[T-1C]_H4.2_A4.1_F4.1_T4.2_[G10T]_[T11A]] | 14.5 nM
UCUCUUUGUCUUUUAUCUCUU (ssRNA) [Ib_S1_P4E.1_K4.1_C4.1_H4.1_[A4C]_A4.1_[A6T]_F4.1_T4.1] | 333 nM
UCUCUUUGUUUUUUAUCUCUU (ssRNA) [Ib_S1_P4E.1_K4.1_C4.1_H4.1_[A4T]_A4.1_[A6T]_F4.1_T4.1] | 100 nM
UCUCUUCCUAUAUAUUAAUUCUCUU (ssRNA) [Id_ii_S1_P4E.3_K4.2_C4.2_[T-1C]_H4.2_A4.1_F4.1_T4.2_[G10A]] | 27.1 nM
UCUCUUCAUAUAUAUUAUUUCUCUU (ssRNA) [Id_ii_S1_P4E.3_K4.2_C4.2_[T-1A]_H4.2_A4.1_F4.1_T4.2_[G10T]] | 21.2 nM
UCUCUUCAUAUAUAUUACUUCUCUU (ssRNA) [Id_ii_S1_P4E.3_K4.2_C4.2_[T-1A]_H4.2_A4.1_F4.1_T4.2_[G10C]] | 21 nM
UCUCUUCCUAUAUAUUAACUCUCUU (ssRNA) [Id_ii_S1_P4E.3_K4.2_C4.2_[T-1C]_H4.2_A4.1_F4.1_T4.2_[G10A]_[T11C]] | 29.3 nM
UCUCUUCGUAUAUAUUAGUUCUCUU (ssRNA) [Id_ii_S1_P4E.3_K4.2_C4.2_[T-1G]_H4.2_A4.1_F4.1_T4.2] | 8.31 nM
UCUCUUCCUAUAUAUUAUUUCUCUU (ssRNA) [Id_ii_S1_P4E.3_K4.2_C4.2_[T-1C]_H4.2_A4.1_F4.1_T4.2_[G10T]] | 26.9 nM
UCUCUUAUUAUAUAUUAUCUCUCUU (ssRNA) [Id_ii_S1_P4E.3_K4.2_C4.2_[C-2A]_H4.2_A4.1_F4.1_T4.2_[G10T]_[T11C]] | 18.9 nM
UCUCUUAAUAUAUAUUAGCUCUCUU (ssRNA) [Id_ii_S1_P4E.3_K4.2_C4.2_[C-2A]_[T-1A]_H4.2_A4.1_F4.1_T4.2_[T11C]] | 38.8 nM
UCUCUUUGUUUCUUAUCUCUU (ssRNA) [Ib_S1_P4E.1_K4.1_C4.1_H4.1_[A4T]_A4.1_[A6C]_F4.1_T4.1] | 370 nM
UCUCUUACUAUAUAUUAAUUCUCUU (ssRNA) [Id_ii_S1_P4E.3_K4.2_C4.2_[C-2A]_[T-1C]_H4.2_A4.1_F4.1_T4.2_[G10A]] | 37.5 nM
UCUCUUUGUCUCUUAUCUCUU (ssRNA) [Ib_S1_P4E.1_K4.1_C4.1_H4.1_[A4C]_A4.1_[A6C]_F4.1_T4.1] | 813 nM
UCUCUUAAUAUAUAUUACCUCUCUU (ssRNA) [Id_ii_S1_P4E.3_K4.2_C4.2_[C-2A]_[T-1A]_H4.2_A4.1_F4.1_T4.2_[G10C]_[T11C]] | 76.2 nM
UCUCUUAUUAUAUAUUAAUUCUCUU (ssRNA) [Id_ii_S1_P4E.3_K4.2_C4.2_[C-2A]_H4.2_A4.1_F4.1_T4.2_[G10A]] | 25.6 nM
UCUCUUCGUAUAUAUUAAGUCUCUU (ssRNA) [Id_ii_S1_P4E.3_K4.2_C4.2_[T-1G]_H4.2_A4.1_F4.1_T4.2_[G10A]_[T11G]] | 101 nM
UCUCUUCCUAUAUAUUAAGUCUCUU (ssRNA) [Id_ii_S1_P4E.3_K4.2_C4.2_[T-1C]_H4.2_A4.1_F4.1_T4.2_[G10A]_[T11G]] | 87.6 nM
UCUCUUCCUAUAUAUUAUCUCUCUU (ssRNA) [Id_ii_S1_P4E.3_K4.2_C4.2_[T-1C]_H4.2_A4.1_F4.1_T4.2_[G10T]_[T11C]] | 18.5 nM
